B1: peroxiredoxin 2, Q61171 1-198 (natural protein)
chain: MASGNAQIGKSAPDFTATAVVDGAFKEIKLSDYRGKYVVLFFYPLDFTFVCPTEIIAFSDHAEDFRKLGCEVLGVSVDSQFTHLAWINTPRKEGGLGPLNIPLLADVTKSLSQNYGVLKNDEGIAYRGLFIIDAKGVLRQITVNDLPVGRSVDEALRLVQAFQYTDEHGEVCPAGWKPGSDTIKPNVDDSKEYFSKHN
B2: peroxiredoxin 3 (natural protein, mouse (endogenous in 3T3-L1 adipocytes), UniProt P20108 63-257, looked up)
chain: TPAVTQHAPYFKGTAVVNGEFKELSLDDFKGKYLVLFFYPLDFTFVCPTEIVAFSDKANEFHDVNCEVVAVSVDSHFSHLAWINTPRKNGGLGHMNITLLSDITKQISRDYGVLLESAGIALRGLFIIDPNGVVKHLSVNDLPVGRSVEETLRLVKAFQFVETHGEVCPANWTPESPTIKPSPTASKEYFEKVHQ
notes: peroxiredoxin 3 (Prdx3), mitochondrial, endogenous in 3T3-L1 adipocytes, detected with anti-PRDX3; The dimer seen on the non-reducing gel is held by a disulfide bond formed on oxidation; also called Prdx3; PRDX3; source: endogenous, 3T3-L1 adipocyte lysate

Assays:
[1] = target: T1, peroxiredoxin 2 (mouse (endogenous in 3T3-L1 adipocytes)), Q61171; test: non-reducing SDS-PAGE with immunoblot; adipocytes treated with BCNU or BCNU/AF for 2 or 24 h; washed and scraped in PBS with 100 mM NEM, 1% SDS; non-reducing SDS-PAGE, immunoblot; dimer/monomer ratio measured; conditions: remark: other sources report otherwise
T1 chain: B1 chain

[2] = target: the molecule itself; test: as above

Binder	stoichiometry N [1]	stoichiometry N [2]
B1	2	
B2		2

Reference: publication PMC6889415, “Global redox proteome and phosphoproteome analysis reveals redox switch in Akt” (Nature Communications, 2019)
